In PMC12510028, “A biophysical and molecular characterization of the interaction between the Alzheimer risk factor BIN1 and the neuronal scaffold protein p140Cap” (The Journal of Biological Chemistry, 2025):

Test system: p140Cap
Test: GST pull-down from mouse brain homogenate, p140Cap captured
Type: binding
Settings: percent pulldown relative to input, two independent experiments, unpaired t test p = 0.0035
Description: For these experiments, we prepared glutathione S-transferase (GST) control and GST-tagged BIN1-SH3 domain fusion proteins coupled to glutathione-Sepharose and incubated them with mouse brain homogenates to capture bound proteins. Western blot analysis confirmed that p140Cap from the brain extract bound specifically to the BIN1-SH3 fusion protein, but not to the GST control (Fig. 7A).
To further investigate the contributions of electrostatic interactions in BIN1 SH3 domain–mediated protein binding, we conducted GST pull-down assays with mutant BIN1 SH3 domain constructs that lacked charged residues. […]
We used a previously published method with some modifications ([22]). […] The samples were analyzed by immunoblotting with antibodies against total tau (Dako #A0024; 1:1000) and p140Cap (Defilippi’s lab mAb; 1:2000) ([44]). After incubation with infrared dye–conjugated secondary antibodies, signals were recorded using the Odyssey infrared imaging system (LI-COR Biosciences) and quantified with ImageStudio6.0. The % GST pulldown was calculated by comparing signal intensities of p140Cap or tau in the input (10 μg) with the corresponding pull-down signal intensity from 0.5 mg protein and then multiplying by 100.

B1: BIN1-SH3 fusion protein: GST-tagged WT human BIN1-SH3 domain fusion protein coupled to glutathione-Sepharose (protein)
chain: GFMFKVQAQHDYTATDTDELQLKAGDVVLVIPFQNPEEQDEGWLMGVKESDWNQHKELEKCRGVFPENFTERVP
modifications: left off: 6xHis, N-terminal, state not stated | GST, N-terminal, kept
notes: GST-tagged WT human BIN1-SH3 domain fusion protein coupled to glutathione-Sepharose
  fold more p140Cap captured than tau: ~9.4 fold
